Results taken from the supplement of paper PMC10567573.

B1: INTS3 (parent)
chain: DLNSKGKKREFRFHPIKETVVEEP

Variants of: B1
Assay: protein stability index of a GFP-peptide fusion (GPS, HEK-293T) (PSI 1-6); higher = more stable
Conditions: c terminus: a fixed tail appended
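Note: lentivirally expressed fusions sorted by FACS into six bins by GFP to DsRed ratio, PSI derived from sequencing read proportions per bin multiplied by bin number.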

Variant	protein stability index
DLNSKGKKREFRFHPIKETVLEEP [V21L]	2.54
DLNSKGKKREFRFHPIKETVNEEP [V21N]	2.36
DLNSKGKKREFRFHPIKETVREEP [V21R]	1.6
DLNSKGKKREFRFHPIKETVKEEP [V21K]	2.01
DLNSKGKKREFRFHPIKETVTEEP [V21T]	2.62
DLNSKGKKREFRFHPIKETVWEEP [V21W]	1.64
DLNSKGKKREFRFHPIKETVGEEP [V21G]	1.97
DLNSKGKKREFRFHPIKETVQEEP [V21Q]	2.06
DLNSKGKKREFRFHPIKETVFEEP [V21F]	1.96
DLNSKGKKREFRFHPIKETVIEEP [V21I]	1.99
DLNSKGKKREFRFHPIKETVPEEP [V21P]	2.22
DLNSKGKKREFRFHPIKETVDEEP [V21D]	2.71
DLNSKGKKREFRFHPIKETVAEEP [V21A]	2.01
DLNSKGKKREFRFHPIKETVHEEP [V21H]	2.12
DLNSKGKKREFRFHPIKETVCEEP [V21C]	2.49
DLNSKGKKREFRFHPIKETVEEEP [V21E]	3.15
DLNSKGKKREFRFHPIKETVSEEP [V21S]	2.1
DLNSKGKKREFRFHPIKETVYEEP [V21Y]	2
DLNSKGKKREFRFHPIKETVMEEP [V21M]	2.08
DLNSKGKKREFRFHPIKYTVVEEP [E18Y]	2.41
DLNSKGKKREFRFHPIKNTVVEEP [E18N]	1.63
DLNSKGKKREFRFHPIKMTVVEEP [E18M]	2.28
DLNSKGKKREFRFHPIKDTVVEEP [E18D]	2.68
DLNSKGKKREFRFHPIKFTVVEEP [E18F]	2.1

Variant	protein stability index
DLNSKGKKREFRFHPIKITVVEEP [E18I]	1.96
DLNSKGKKREFRFHPIKATVVEEP [E18A]	2.42
DLNSKGKKREFRFHPIKSTVVEEP [E18S]	1.94
DLNSKGKKREFRFHPIKHTVVEEP [E18H]	2.13
DLNSKGKKREFRFHPIKQTVVEEP [E18Q]	1.58
DLNSKGKKREFRFHPIKLTVVEEP [E18L]	2.83
DLNSKGKKREFRFHPIKPTVVEEP [E18P]	2.19
DLNSKGKKREFRFHPIKWTVVEEP [E18W]	2.75
DLNSKGKKREFRFHPIKKTVVEEP [E18K]	1.79
DLNSKGKKREFRFHPIKRTVVEEP [E18R]	1.87
DLNSKGKKREFRFHPIKVTVVEEP [E18V]	1.86
DLNSKGKKREFRFHPIKCTVVEEP [E18C]	2.48
DLNSKGKKREFRFHPIKGTVVEEP [E18G]	2.1
DLNSKGKKREFRFHPIKTTVVEEP [E18T]	2.7
DLNSKGKKREFRFHPIKETVVEGP [E23G]	2.13
DLNSKGKKREFRFHPIKETVVEKP [E23K]	2.27
DLNSKGKKREFRFHPIKETVVEMP [E23M]	2.02
DLNSKGKKREFRFHPIKETVVEPP [E23P]	2.36
DLNSKGKKREFRFHPIKETVVEQP [E23Q]	2.35
DLNSKGKKREFRFHPIKETVVESP [E23S]	1.58
DLNSKGKKREFRFHPIKETVVECP [E23C]	3.71
DLNSKGKKREFRFHPIKETVVERP [E23R]	2.04
DLNSKGKKREFRFHPIKETVVETP [E23T]	2.24
DLNSKGKKREFRFHPIKETVVEHP [E23H]	1.99

Variant	protein stability index
DLNSKGKKREFRFHPIKETVVENP [E23N]	1.73
DLNSKGKKREFRFHPIKETVVEYP [E23Y]	1.71
DLNSKGKKREFRFHPIKETVVEAP [E23A]	1.81
DLNSKGKKREFRFHPIKETVVELP [E23L]	2.19
DLNSKGKKREFRFHPIKETVVEWP [E23W]	1.48
DLNSKGKKREFRFHPIKETVVEVP [E23V]	2.25
DLNSKGKKREFRFHPIKETVVEFP [E23F]	1.71
DLNSKGKKREFRFHPIKETVVEDP [E23D]	2.45
DLNSKGKKREFRFHPIKETVVEIP [E23I]	2.24
DLNSKGKKREFRFHPIKETVVEEM [P24M]	1.92
DLNSKGKKREFRFHPIKETVVEEC [P24C]	2.54
DLNSKGKKREFRFHPIKETVVEEK [P24K]	2.08
DLNSKGKKREFRFHPIKETVVEEN [P24N]	2
DLNSKGKKREFRFHPIKETVVEEI [P24I]	1.68
DLNSKGKKREFRFHPIKETVVEEE [P24E]	2.6
DLNSKGKKREFRFHPIKETVVEEA [P24A]	2.2
DLNSKGKKREFRFHPIKETVVEEW [P24W]	2.84
DLNSKGKKREFRFHPIKETVVEEV [P24V]	2.46
DLNSKGKKREFRFHPIKETVVEEF [P24F]	2.81
DLNSKGKKREFRFHPIKETVVEEG [P24G]	2.25
DLNSKGKKREFRFHPIKETVVEEQ [P24Q]	2.03
DLNSKGKKREFRFHPIKETVVEER [P24R]	2.19
DLNSKGKKREFRFHPIKETVVEED [P24D]	2.4
DLNSKGKKREFRFHPIKETVVEEH [P24H]	2.36

Variant	protein stability index
DLNSKGKKREFRFHPIKETVVEEY [P24Y]	2.32
DLNSKGKKREFRFHPIKETVVEET [P24T]	2.38
DLNSKGKKREFRFHPIKETVVEES [P24S]	2.22
DLNSKGKKREFRFHPIKETVVEEL [P24L]	2.35
DLNSKGKKREFRFHPIKETVVAEP [E22A]	2.22
DLNSKGKKREFRFHPIKETVVIEP [E22I]	2.21
DLNSKGKKREFRFHPIKETVVSEP [E22S]	1.92
DLNSKGKKREFRFHPIKETVVTEP [E22T]	1.79
DLNSKGKKREFRFHPIKETVVMEP [E22M]	1.57
DLNSKGKKREFRFHPIKETVVLEP [E22L]	1.91
DLNSKGKKREFRFHPIKETVVNEP [E22N]	1.69
DLNSKGKKREFRFHPIKETVVPEP [E22P]	1.96
DLNSKGKKREFRFHPIKETVVKEP [E22K]	2.1
DLNSKGKKREFRFHPIKETVVDEP [E22D]	2.07
DLNSKGKKREFRFHPIKETVVHEP [E22H]	1.91
DLNSKGKKREFRFHPIKETVVCEP [E22C]	2.06
DLNSKGKKREFRFHPIKETVVFEP [E22F]	2.01
DLNSKGKKREFRFHPIKETVVWEP [E22W]	2.11
DLNSKGKKREFRFHPIKETVVYEP [E22Y]	1.87
DLNSKGKKREFRFHPIKETVVVEP [E22V]	1.69
DLNSKGKKREFRFHPIKETVVQEP [E22Q]	1.64
DLNSKGKKREFRFHPIKETVVREP [E22R]	1.75
DLNSKGKKREFRFHPIKETVVGEP [E22G]	1.79
DLNSKGKKREFRFHPIKETEVEEP [V20E]	2.54

Variant	protein stability index
DLNSKGKKREFRFHPIKETWVEEP [V20W]	3.44
DLNSKGKKREFRFHPIKETFVEEP [V20F]	1.9
DLNSKGKKREFRFHPIKETAVEEP [V20A]	2.3
DLNSKGKKREFRFHPIKETPVEEP [V20P]	2.73
DLNSKGKKREFRFHPIKETNVEEP [V20N]	2.37
DLNSKGKKREFRFHPIKETHVEEP [V20H]	2.6
DLNSKGKKREFRFHPIKETRVEEP [V20R]	1.77
DLNSKGKKREFRFHPIKETGVEEP [V20G]	2.07
DLNSKGKKREFRFHPIKETTVEEP [V20T]	2.09
DLNSKGKKREFRFHPIKETCVEEP [V20C]	2.29
DLNSKGKKREFRFHPIKETKVEEP [V20K]	2.16
DLNSKGKKREFRFHPIKETQVEEP [V20Q]	2.65
DLNSKGKKREFRFHPIKETMVEEP [V20M]	2.25
DLNSKGKKREFRFHPIKETYVEEP [V20Y]	1.92
DLNSKGKKREFRFHPIKETLVEEP [V20L]	1.99
DLNSKGKKREFRFHPIKETDVEEP [V20D]	2.87
DLNSKGKKREFRFHPIKETIVEEP [V20I]	1.97
DLNSKGKKREFRFHPIKETSVEEP [V20S]	2.07
DLNSKGKKREFRFHPSKETVVEEP [I16S]	1.99
DLNSKGKKREFRFHPLKETVVEEP [I16L]	2.24
DLNSKGKKREFRFHPYKETVVEEP [I16Y]	2.36
DLNSKGKKREFRFHPQKETVVEEP [I16Q]	2.34
DLNSKGKKREFRFHPPKETVVEEP [I16P]	2.28
DLNSKGKKREFRFHPKKETVVEEP [I16K]	2.21

Variant	protein stability index
DLNSKGKKREFRFHPVKETVVEEP [I16V]	2.71
DLNSKGKKREFRFHPTKETVVEEP [I16T]	2.12
DLNSKGKKREFRFHPNKETVVEEP [I16N]	3.04
DLNSKGKKREFRFHPRKETVVEEP [I16R]	1.77
DLNSKGKKREFRFHPMKETVVEEP [I16M]	2.79
DLNSKGKKREFRFHPWKETVVEEP [I16W]	2.12
DLNSKGKKREFRFHPIDETVVEEP [K17D]	3.93
DLNSKGKKREFRFHPISETVVEEP [K17S]	3.25
DLNSKGKKREFRFHPIFETVVEEP [K17F]	2.05
DLNSKGKKREFRFHPILETVVEEP [K17L]	3.26
DLNSKGKKREFRFHPIRETVVEEP [K17R]	1.69
DLNSKGKKREFRFHPINETVVEEP [K17N]	2.6
DLNSKGKKREFRFHPITETVVEEP [K17T]	2.77
DLNSKGKKREFRFHPIVETVVEEP [K17V]	2.69
DLNSKGKKREFRFHPIGETVVEEP [K17G]	2.91
DLNSKGKKREFRFHPIPETVVEEP [K17P]	1.98
DLNSKGKKREFRFHPIHETVVEEP [K17H]	2.31
DLNSKGKKREFRFHPIMETVVEEP [K17M]	2.69
DLNSKGKKREFRFHPIIETVVEEP [K17I]	1.94
DLNSKGKKREFRFHPICETVVEEP [K17C]	2.67
DLNSKGKKREFRFHPIEETVVEEP [K17E]	3.48
DLNSKGKKREFRFHPIAETVVEEP [K17A]	2.5
DLNSKGKKREFRFHPIWETVVEEP [K17W]	1.8
DLNSKGKKREFRFHPIYETVVEEP [K17Y]	2

Variant	protein stability index
DLNSKGKKREFRFHPIQETVVEEP [K17Q]	3.01
DLNSKGKKREFRFHPIKEQVVEEP [T19Q]	1.96
DLNSKGKKREFRFHPIKEFVVEEP [T19F]	2.2
DLNSKGKKREFRFHPIKEKVVEEP [T19K]	2
DLNSKGKKREFRFHPIKEDVVEEP [T19D]	2.87
DLNSKGKKREFRFHPIKEHVVEEP [T19H]	2.42
DLNSKGKKREFRFHPIKELVVEEP [T19L]	2.74
DLNSKGKKREFRFHPIKENVVEEP [T19N]	2.31
DLNSKGKKREFRFHPIKEAVVEEP [T19A]	2.07
DLNSKGKKREFRFHPIKEYVVEEP [T19Y]	1.92
DLNSKGKKREFRFHPIKERVVEEP [T19R]	2.04
DLNSKGKKREFRFHPIKESVVEEP [T19S]	2.12
DLNSKGKKREFRFHPIKEEVVEEP [T19E]	2.29
DLNSKGKKREFRFHPIKEGVVEEP [T19G]	2.62
DLNSKGKKREFRFHPIKEPVVEEP [T19P]	1.74
DLNSKGKKREFRFHPIKEWVVEEP [T19W]	2.05
DLNSKGKKREFRFHPIKEIVVEEP [T19I]	1.94
DLNSKGKKREFRFHPIKEMVVEEP [T19M]	2.31
DLNSKGKKREFRFHPIKEVVVEEP [T19V]	1.86
DLNSKGKKREFRFHPIKECVVEEP [T19C]	2.34
